Measurements: paper PMC2568053, “Relevance of the Diversity among Members of the Trypanosoma Cruzi Trans-Sialidase Family Analyzed with Camelids Single-Domain Antibodies” (PLoS ONE, 2008)
Substitutions are numbered along the chain they refer to.

B1: VHHSI52 (VHH)
VHH: GGGLVQAGGSLRLSCAASGRTFYNYAMGWFRQAPGKEREFVAAISWSGGSTLYTDSVKGRFTISRANGQNTVYLQMNSLKPEDTAVYYCAADADAQPMGIIENYDYWGQG
notes: also called clone SI52; not shown: His6, C-terminal, kept
B2: VHHSI96 (VHH)
VHH: B1 VHH with R20P, L52Y, T54A, G68A, Q69H
notes: also called clone SI96; not shown: His6, C-terminal, kept
B3: VHHSI57 (VHH)
VHH: B1 VHH with F22L, L52E, T54A, G68A, T71K, I100V
notes: also called clone SI57; not shown: His6, C-terminal, kept
B4: VHH clone WI58 (VHH)
VHH: GGGLVQAGGSLRLSCAASGLTLGNYAMGWFRQAPGKERELVAAISWSGGSTYYPDSVKGRFTISRDNAKNTVYLQMNSLKPEDTAVYYCAADGQLVPLPRLSDGVDYWGKG
notes: not shown: His6, C-terminal, kept
B5: VHHSI14 (VHH)
VHH: B1 VHH with T54A, G68A, S78K, I100V
notes: also called clone SI14; VHHS14; not shown: His6, C-terminal, kept

What follows are binders tested against recombinant TcTS clone TcTS-46 (Trypanosoma cruzi (Cl-Brener strain)) (assay: not given). Details: not given.

Row | Binder | other [% inhibition]
1 | B1 | 38.9
2 | B2 | 34.8
3 | B3 | 31.7

These binders were tested against recombinant TcTS clone TcTS-24 (Trypanosoma cruzi (Cl-Brener strain)) (assay: not given). Details: not given.

Row | Binder | other [% inhibition]
4 | B1 | 98
5 | B2 | 94.2
6 | B3 | 98.4

Each binder was assayed against recombinant TcTS clone TcTS-12 (Trypanosoma cruzi (Cl-Brener strain)) (assay: not given). Details: not given.

Row | Binder | other [% inhibition]
7 | B1 | 57.2
8 | B2 | 59.5
9 | B3 | 57.2

The binders below were run against recombinant TcTS clone TcTS-15 (Trypanosoma cruzi (Cl-Brener strain)) (assay: not given). Details: not given.

Row | Binder | other [% inhibition]
10 | B1 | 68.7
11 | B2 | 67.4
12 | B3 | 81.2

Each binder was assayed against recombinant TcTS clone TcTS-49 (Trypanosoma cruzi (Cl-Brener strain)) (assay: not given). Details: not given.

Row | Binder | other [% inhibition]
13 | B1 | 49
14 | B2 | 24.4
15 | B3 | 51.1

These binders were tested against T1, recombinant Trypanosoma cruzi trans-sialidase TcTS611/2 (Trypanosoma cruzi, clone TcTS611/2 …, UniProt Q26966) (assay: far-Western, overlay or dot blot; 300 ng of each His-tagged VHH spotted on nitrocellulose, probed with native TcTS611/2, revealed with rabbit anti-TcTS serum and HRP secondary). Details: both partners purified.
T1 construct: Trypanosoma cruzi trans-sialidase (TcTS), clone 611/2: entire globular core of TcTS without SAPA repeats; also called recombinant TcTS; pTrcTS611/2

Row | Binder | binding result
16 | B4 | binds

These binders were tested against T1, recombinant Trypanosoma cruzi … (assay: IAsys biosensor). Details: both partners purified.

Row | Binder | Kd [µM] | koff [s⁻¹] | kon [M⁻¹ s⁻¹]
17 | B1 | 0.069 | 0.0103 | 149000
18 | B5 | 0.0223 | 0.00265 | 119000
19 | B2 | 0.0484 | 0.017 | 352000
20 | B3 | 0.0863 | 0.0143 | 165000

These binders were tested against T1, recombinant Trypanosoma cruzi … (assay: cell-based or functional assay). Details: not given.

Row | Binder | other [% inhibition]
21 | B1 | 81.3
22 | B2 | 80.5
23 | B3 | 83.3
